Laboratory results from publication PMC3801112.

Tests used:
[1] = target: T1, PiCypA (cyclophilin A-like protein) (Piriformospora indica, UniProt C6KGV3 1-164); test: ITC
[2] = target: T1, PiCypA (cyclophilin A-like protein); test: ITC; remark: listed apart in the source

B1: 13 mer RNA (ssRNA)
RNA: AUAGCCUCAACCG
[1]
  Kd: 22.5 µM

B2: 13 mer poly-A RNA (ssRNA)
RNA: AAAAAAAAAAAAA
[2]
  binding result: no binding
